The source of these data is patent US20120082679A1 (Merck Sharp & Dohme, published 2012).

Like-named read-outs stand apart in the source and are kept apart here.

The target of assay [1] is T1, recombinant human PCSK9, V5-, His-tagged (human, UniProt Q8NBP7 31-692, limits assumed). The assay is described as follows: cell-based or functional assay.
The target of assay [2] is T1, recombinant human PCSK9, V5-, His-tagged. Nature of the assay: cell-based or functional assay. The source holds these as a separate data set.
Assay [3] shares this target. The assay is described as follows: SPR (Biacore 2000), Direct (PCSK9 immobilized, Fab in mobile phase), mean N = 2.
Assay [4] concerns the target T2, V5-, His-tagged secreted alkaline phosphatase protein (SEAP) (UniProt P05187 23-511).
T2 construct: Tag control antigen, expressed in the same cells as the PCSK9 antigen and similarly purified; not shown: V5 and His tags
Nature of the assay: ELISA, immobilized V5-, His-tagged SEAP, Fab culture supernatant, HRP anti-Fab detection. As to the method: Cultures of individual transformants were IPTG-induced and grown overnight for Fab expression. Culture supernatants (candidate Fabs) were incubated with purified V5-, His-tagged PCSK9 protein immobilized in wells of 96-well Nunc Maxisorp plates, washed with 0.1% Tween™ 20 in PBS using a plate washer, incubated with HRP-coupled anti-Fab antibody, and washed again with PBS/Tween™ 20. Bound HRP was detected by addition of […] substrated, and A₄₅₀ values of wells were read with a plate reader.
EsB antigen was bound to three wells of the plate and subsequently incubated with anti-EsB Fab. To control for Fabs reacting with the V5 or His tags of the recombinant PCSK9 antigen, parallel ELISAs were performed using V5-, His-tagged secreted alkaline phosphatase protein (SEAP) expressed in the same cells as the original PCSK9 antigen and similarly purified. Putative PCSK9-reactive Fabs were identified as yielding>3× background values when incubated with PCSK9 antigen but negative when incubated with SEAP. Clones scoring as PCSK9-reactive in the first round of screening were consolidated onto a single plate, re-grown in triplicate, re-induced with IPTG, and re-assayed in parallel ELISAs vs. PCSK9 and SEAP. Positive and negative controls were included as described above. Clones scoring positive in at least 2 of 3 replicates were carried forward into subsequent characterizations. In cases of known or suspected mixed preliminary clones, cultures were re-purified by streaking for single colonies on 2×YT plates with chloramphenicol, and liquid cultures from three or more separate colonies were assayed again by ELISAs in triplicate as described above.
(In general: An ELISA detects its analyte on a solid surface through an enzyme-linked reagent.)

In assay [5] the target is T1, recombinant human PCSK9, V5-, His-tagged. The assay is described as follows: cell-based or functional assay. This is another data set of the same source.
For assay [6] the target is unchanged. Nature of the assay: SPR (Biacore 2000), Direct & Ab Capture, mean N = 3. As to the method: SPR measurements were performed using a Biacore™ (Pharmacia Biosensor AB, Uppsala, Sweden) 2000 system. Sensor chip CM5 and Amine coupling kit for immobilization were from Biacore™.
Anti-Fab IgG (Human specific) was covalently coupled to surfaces 1 and 2 of a Sensor Chip CM5 via primary amine groups, using the immobilization wizard with the “Aim for immobilization” option. A target immobilization of 5000 RU was specified. The wizard uses a 7 minute activation with a 1:1 mixture of 100 mM NHS and 400 mM EDC; injects the ligand in several pulses to achieve the desired level, then deactivates the remaining surface with a 7 minute pulse of ethanolamine.
Anti-PCSK9 Fabs were captured on capture surface 2 and surface 1 was used as a reference for kinetic studies of Fab:PCSK9 interactions. Fab was captured by flowing a 500 ng/ml solution at 5 μl/min for 1-1.5 minutes to reach a target RL for an Rₘₐₓ of 100-150 RU for the reaction. 5-10 concentrations of hPCSK9v5H is or mPCSK9v5H is antigens were flowed across the surface at 30 μl/minute for 3-4 minutes. 15-60 minutes dissociation time was allowed before regeneration of the Anti-Fab surface with a 30 second pulse of 10 mM glycine pH 2.0.
(In SPR one partner is held on a chip, and binding of the other changes the refractive index at the surface.)

The target is the same in assay [7]. Nature of the assay: cell-based or functional assay. The source holds these as a separate data set.
For assay [8] the target is unchanged. The assay is described as follows: cell-based or functional assay. The source holds these as a separate data set.
Assay [9] has the same target. Nature of the assay: cell-based or functional assay. This is another data set of the same source.

What is called Kd is the free concentration of one partner at which half of the binding sites on the other are occupied at equilibrium, for simple one-to-one binding. One may read the koff as a measure of how fast the partners let go of each other. The kon is the rate constant with which the complex forms.

T1 sequence (Q8NBP7 31-692 limits assumed): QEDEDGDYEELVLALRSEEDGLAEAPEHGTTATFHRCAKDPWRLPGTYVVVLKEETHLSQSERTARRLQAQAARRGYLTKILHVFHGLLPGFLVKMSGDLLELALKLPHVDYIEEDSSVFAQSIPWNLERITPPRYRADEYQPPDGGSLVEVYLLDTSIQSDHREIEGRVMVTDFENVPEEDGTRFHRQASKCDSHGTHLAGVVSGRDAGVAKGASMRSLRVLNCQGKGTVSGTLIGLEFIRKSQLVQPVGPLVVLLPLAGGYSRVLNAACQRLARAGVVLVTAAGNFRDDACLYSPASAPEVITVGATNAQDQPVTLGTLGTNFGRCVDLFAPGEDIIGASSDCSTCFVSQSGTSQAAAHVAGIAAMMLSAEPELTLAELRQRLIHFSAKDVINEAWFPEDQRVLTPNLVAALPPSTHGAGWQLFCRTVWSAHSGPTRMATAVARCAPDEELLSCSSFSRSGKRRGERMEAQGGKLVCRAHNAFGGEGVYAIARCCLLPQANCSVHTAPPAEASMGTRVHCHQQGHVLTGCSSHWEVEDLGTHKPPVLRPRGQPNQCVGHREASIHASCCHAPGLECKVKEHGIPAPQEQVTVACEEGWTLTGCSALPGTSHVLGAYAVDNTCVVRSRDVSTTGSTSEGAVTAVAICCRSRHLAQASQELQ
T2 sequence (P05187 23-511): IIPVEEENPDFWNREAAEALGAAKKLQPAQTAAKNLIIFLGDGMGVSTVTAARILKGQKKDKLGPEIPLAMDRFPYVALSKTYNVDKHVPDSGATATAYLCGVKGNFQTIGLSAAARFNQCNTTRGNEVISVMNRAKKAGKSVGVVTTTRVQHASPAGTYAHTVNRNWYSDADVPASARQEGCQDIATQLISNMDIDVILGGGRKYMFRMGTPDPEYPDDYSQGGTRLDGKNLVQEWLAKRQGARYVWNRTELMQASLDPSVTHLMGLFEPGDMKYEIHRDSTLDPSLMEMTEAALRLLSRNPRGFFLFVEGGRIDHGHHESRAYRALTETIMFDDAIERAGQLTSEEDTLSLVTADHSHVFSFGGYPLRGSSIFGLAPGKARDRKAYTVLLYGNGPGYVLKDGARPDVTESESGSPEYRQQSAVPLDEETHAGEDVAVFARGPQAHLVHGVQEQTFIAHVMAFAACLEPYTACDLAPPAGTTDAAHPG

B1: 3BX5C01 (Fab, V domains shown)
VH: QVQLVQSGAEVKKPGESLKISCKGSGYSFTSYGISWVRQMPGKGLEWMGMIDPSDSFTTYSPSFQGQVTISADKSISTAYLQWSSLKASDTAMYYCARGYYFTYALQPMDHWGQGTLVTVSS
VL: DIELTQPPSVSVAPGQTARISCSGDNLRDYIVHWYQQKPGQAPVLVIYDDSNRPSGIPERFSGSNSGNTATLTISGTQAEDEADYYCGFDNGGDIDVFGGGTKLTVLG
notes: also called 3BX5C01 Fab
Take B1: in assay [1], the “inhibition of PCSK9-dependent inhibition of cellular LDL uptake (Exopolar assay)” value (“inhibition” for short) is 25%. In assay [2], the “IC50; Fab titrated against fixed PCSK9 (25 µg/ml), recovery of cellular diI-LDL uptake (Exopolar assay)” value (“IC50; Fab titrated against fixed PCSK9” for short) was 1250 nM. In [3], the Kd was 23.1 nM, the koff came to 0.000642 s⁻¹ and the kon is 28000 M⁻¹ s⁻¹. In addition, in assay [4], the binding result is given as “no binding”.

B2: 3CX4B08 (Fab, V domains shown)
VH: QVQLVESGGGLVQPGGSLRLSCAASGFTFSNYTMNWVRQAPGKGLEWVSFISSSSSETYYADSVKGRFTISRDNSKNTLYLQMNSLRAEDTAVYYCARGYGDMVDLWGQGTLVTVSS
VL: DIELTQPPSVSVAPGQTARISCSGDSIPTYYVAWYQQKPGQAPVLVIYSDTDRPSGIPERFSGSNSGNTATLTISGTQAEDEADYYCQSFDNHGYHVFGGGTKLTVLG
notes: also called 3CX4B08 Fab
Regarding B2, the “inhibition” value in assay [1] worked out at 61%. For the same molecule, in [5], the “IC50; Fab titrated against fixed PCSK9” value is 127 nM. Also, in [6], the Kd turned out to be 2.97 nM, the koff amounted to 0.000685 s⁻¹ and the kon stood at 233000 M⁻¹ s⁻¹. Moreover, in [4], the binding result is given as “no binding”.

B3: 3CX2A06 (Fab, V domains shown)
VH: QVQLVQSGAEVKKPGESLKISCKGSGYSFSNFWIAWVRQMPGKGLEWMGIIDPSDSWTRYSPSFQGQVTISADKSISTAYLQWSSLKASDTAMYYCARGDGQDFDNWGQGTLVTVSS
VL: DIQMTQSPSSLSASVGDRVTITCRASQNINSYLNWYQQKPGKAPKLLIYAASSLQSGVPSRFSGSGSGTDFTLTISSLQPEDFAVYYCLQNYDLPNTFGQGTKVEIKR
notes: No SPR values are printed for this Fab; also called 3CX2A06 Fab
For the molecule B3, in assay [1], the “inhibition” value stood at 23%. Further, in assay [7], the “IC50; Fab titrated against fixed PCSK9” value was 107 nM. For the same molecule, in assay [4], the binding result is recorded as “no binding”.

B4: 3CX3D02 (Fab, V domains shown)
VH: QVQLVQSGAEVKKPGESLKISCKGSGYSFTNSWIGWVRQMPGKGLEWMGIIYPSDSYTIYSPSFQGQVTISADKSISTAYLQWSSLKASDTAMYYCARGGGYYYALMDVWAQGTLVTVSS
VL: DIQMTQSPSSLSASVGDRVTITCRASQTISTWLNWYQQKPGKAPKLLIYAASSLQSGVPSRFSGSGSGTDFTLTISSLQPEDFATYYCLQDSSLPLTFGQGTKVEIKR
notes: also called 3CX3D02 Fab
In the case of B4, the “inhibition” value in [1] was 23%. Besides, the “IC50; Fab titrated against fixed PCSK9” value in assay [8] worked out at 289 nM. In [3], the Kd came to 7.01 nM, the koff was determined as 0.000876 s⁻¹ and the kon is 166000 M⁻¹ s⁻¹. Further, the binding result in [4] is on record as “no binding”.

B5: 1CX1G08 (Fab, V domains shown)
VH: QVQLVESGGGLVQPGGSLRLSCAASGFTFSDYWVSWVRQAPGKGLEWVSFISYDGSSTYYADSVKGRFTISRDNSKNTLYLQMNSLRAEDTAVYYCARTYFEGVDVWGQGTLVTVSS
VL: DIELTQPPSVSVAPGQTARISCSGDNIGTYYVHWYQQKPGQAPVLVIYDDSNRPSGIPERFSGSNSGNTATLTISGTQAEDEADYYCGTWDNTSFNLVFGGGTKLTVLG
notes: also called 1CX1G08 Fab
With B5, the “inhibition” value in assay [1] was determined as 53%. Further, the “IC50; Fab titrated against fixed PCSK9” value in assay [9] is 267 nM. Further, in [6], the Kd was determined as 0.55 nM, the koff stood at 0.000176 s⁻¹ and the kon came to 335000 M⁻¹ s⁻¹. In addition, the binding result in assay [4] was “no binding”.
